test: soluble on expression in E. coli; label from the status in PepcDB or PDB records

Sequence	soluble on expression in E. coli
MQFSTVASIAAVAAVASAAANVTTATVSQESTTLVTITSCEDHVCSETVSPALVSTATVTVDDVITQYTTWCPLTTEAPKNGTSTAAPVTSTEAPKNTTSAAPTHSVTSYTGAAAKALPAAGALLAGAAALLL	soluble
MQHAKIFFVIASVKFLMILSIHNYTQMSKTCKLRTVARKTVMEFEGVEDFIVPFVNYTKRFMVAPDKKLISCTLRKSMSQLAENIMCLLYDEQQYFANSQSLNDTWKDERKCEHDRSYLNPSETLLNDTDTVRFAFIRDPFQRFISFYLDKCVREQKCYNCGNNMTCVLKNFYWGLKKVQRRWDGREQPEYVEIHAAPLSWNCDFYKDLSKWQLIPIGSDKTERSSAITQTEKILRKQRVNETLVDMVVDGMKDGDTDHSTYKSAHRLEAERQIREDPYIREMLHKIYYFDYVVFPFNRDSLDLKFQDTSCTIPLP	not soluble
MQHECNTDYTIAKYIPYIKPKYVTQEGTTVLYVRYNYNRNKRTLISTGYNIKPEHWDAKRKWIKRACPHYEEIDACLIKITSKLGDILTYAKVNGIDPTVDFVLLELEKNREYDLRPNRVDMFDALERYIVEKAPSVSADQIKDYRTLRKHLTAFKEYSSQPVTFRNLNLTFYNEFMDYLFHKVVKPNGTVGLLTNSAGKIIRLLKGFVNYQIVKGIIPPIDLKNFKVVEEETDAIYLNEKELAAIYELDLSDDKQLEEIRDVFITGCFTGLRYSDLSTLSPEHIDLDNENINLKQRKVHKAVVIPMIDYVPEILKKYNYDLPKIPRYMFNERVKELGRKIKLSQKIEVVRRKGKEREKRVYEKWEMISSHTCRRSFCTNMYLSGFPAAELMRISGHKSPSAFMRYIKVDNQQAAKRLKELRAKLAR	not soluble
MQKEKLSALMDGETLDSELLKALTHDPEMQKTWESYHLIRDSMRGDTPDVLHFDISARVMAAIENEPVRQVSPLIPEAQPAPQQWQKMPFWKKVRPWAAQLTQMGVAACVSLAVIVGVQHYNGQSETSQQPETPVFNTLPMMGKASPVSLGVPSEAAPVGSQQQQVQEQRRRINAMLQDYELQRRLHSEQLQFEQAQTQQAAVQVPGIQTLGTQSQ	not soluble
MQKFDTRTFQGLILTLQDYWARQGCTIVQPLDMEVGAGTSHPMTCLRELGPEPMAAAYVQPSRRPTDGRYGENPNRLQHYYQFQVVIKPSPDNIQELYLGSLKELGMDPTIHDIRFVEDNWENPTLGAWGLGWEVWLNGMEVTQFTYFQQVGGLECKPVTGEITYGLERLAMYIQGVDSVYDLVWSDGPLGKTTYGDVFHQNEVEQSTYNFEYADVDFLFTCFEQYEKEAQQLLALENPLPLPAYERILKAAHSFNLLDARKAISVTERQRYILRIRTLTKAVAEAYYASREALGFPMCNKDKLEHHHHHH	not soluble
MQKISRIVNSIYLTAELTAGTANTYDLIAEFFNFGPDSYNKLQSIDMKELKSGLEEIVSIHSELTYTDIDKRAEQRFRHLIEIRKEVEGVGSLEDIKDAQANYKSELETFKKTTFDTAGIEEFQNAVKNFIGAAADVEKYSNLEKLTDVDIMYARPLIYTLKTSIENLAKSYSSINSFDDFEKIRNPSEFVDPISKIVSGYKKYNASRTTIERDGNFAKGMQSNANNMKRLENVASVFEGLGSFVKNLQAVIDVRQTMHLPKYTVGFIDGTFDPKKVVTDLEDDWVQSVTHEMDLNRTINLLLPIGDHVSAIEASFLSSSSKQSKFFTGFKSSETEVSPVDGSIDSIISTSKKVSECIIAPLTYLESIKEVEILLQAIESLKKTVDTLVGTKELVNWVKTNDVVLKEVEALCSYTDEEKKDFESSVPIKLKGLKSSENYTSLIKTLNQSSLFADAVFSEKLSTTGQETAYILGGLQSLDAFYNSATDHIAFFDCLLNVAYYDLIPLAIDTLNKVRKMDVQPIRDGIDVVNDLFNVSNQLDELKTKLRELNDPNFSIAETPLSNPSLHTTTIGLSVRGVIRMKDEIDHRSDFDVVIENAEMVDQEMKNTGKKAINMVEFGSRLKKLKSELEGWKSNITVGGAHRIRRSTPSLADYAHIFQNALKVGGVDDDLKKLMDAVKDFEKTGKDAATKVKLKEVIASLNSLNSIGLQLSSFATPFTAIGQSFSALDAFFVSNGKIITTPAPIVSSSDIRSPTIEDATALVSFLYKLLNDFMKEEGDKGATNNGKLPLKAMYQFCKSILRIANLAPNNAIVESEKYSEQDRYSDVLCGMDNRILIDEDVCRRCYFKDQYINANYLELPNGNRMILTQAPMSRTEHFKPEKDKKRKNLYSLSDEEEEISYLVQTVDKFYQTIVQTGTEVVAMLCDFNEEGVEKCSSYFPLEKDGKQKFHNVNVCTTNVQHPSADVVLRTLVITSYLGEKKKTHTVKHYSYKGWIEKNAPELPREILNIFRVARNSKSLVVHCSNGIGRSAAFVSWELCYHFVPVNFEICDFSVAEFVYQKMIRSLDTTSTVNLDFLSLLTELRHSRPRAIHTPMQLAFSIMMVLDFVMNNFPKGEMEAKYQEIRKSYLHARQMMHKDLEFDGSDGKTVDIALDEDGHGIPEKKGKKKTNKKAAQQASVKKDEKSKKKSKKDSKKGSKMDMKTAEEGMKSLQKKAA	not soluble
MQKLIMGNWKMNGNSTSIKELCSGISQVQYDTSRVAIAVFPSSVYVKEVISQLPEKVGVGLQNITFYDDGAYTGEISARMLEDIGCDYLLIGHSERRSLFAESDEDVFKKLNKIIDTTITPVVCIGESLDDRQSGKLKQVLATQLSLILENLSVEQLAKVVIAYEPVWAIGTGVVASLEQIQETHQFIRSLLAKVDERLAKNIKIVYGGSLKAENAKDILSLPDVDGGLIGGASLKAAEFNEIINQANKICTE	not soluble
MQLNATQLQAALPWDSLIEALKDIFVREVCSPVRHHHSINVPDKLSATLLLMPAWLEGEYLGIKQVNVFPSNNVSNIPALSSHYMLSCGKTGQPLMQLDGNELTARRTAAASALASAYLSREDARVMLMVGSGRMARRLITAHMSVRPIKIVQVWDRKEEKAQTLVTELKESGINAEVCKPDNLQAAAQQADIISCATMATSPLILGKWLKPGAHLDLVGSFTPTMRETDNAAMQLCSVFVDTRAGALSETGDLIIPIRDGAITQEKIIAEFTQLCSGEHRGRADLANPDNSITLFKSVGDSREDLAAAILAFEQCNQR	not soluble
MQLRKKLHEAIVDGEEDDCPKRKIKKLDIQVDAATKVFSNQHILHDIIEYTVDGDKSILDNLRLRLVSRSFNNVVLSKVRAEFKMVQVCPYQQPEGADEKEEPEYDESNDIEDRSFMINDRRTWFSQVPRFFEFLNSVARIRVRDLLFSGFTSPDQRIHECILYSLLDGNWYSLNSYKGADELCNGCAVCSGNCFPLLAEIALHCVTMVGSREEAFSRLTKMITQDVNCDQLDLVFSDRCMWSKGTLAHPREVIDRIVKAWRVKSINIRFMTEYSSIDHEMWSNKRIFTEMRFDEMFVTDHNIIRPRHERDHFERVEVDMQAGDEIATCFAESMGMFEQSGMSATAFQNVCANVKRIFPTQDMYLILPTELAHVASVEFDGFCKALLEFAWKDERTARHSRLFFRLYTFGITEEQVLRQTENQFKINCRPVAAMLSDSSVRRSFLQWLPGSTSTFDRSLLSFTDVWNNCVLHLEVCIEADC	not soluble
MQMLDRLESEILADRVSEESRRWLASCGLTVEQMKNQMDPVYTPARKIHLYHCDHRGLPLALISTEGATAWCAEYDEWGNLLSDENPHHLQQLIRLPGQQYDEESGLYYNRHRYYDPLLGRYITQDPIGLKGGWNFYQYPLNPVINVDPQGLVDINLYPESDLIHSVADEINIPGVFTIGGHGTPTSIESATRSIMTAKDLAYLIKFDGNYKDGMTVWLFSCNTGKGQNSFASLEHHHHHH	not soluble
MQNDVFFDLTQHGFSEDEASQLMVYGQELELPTRHILSHQGEFSSHIYFILEGLCHASYLTEKGKEFSKEFYWEKDWVIGFESVIKGQPSPYLLETLTACHLFCLPIEALHQWRAEKHSIYLKLLETQLMNKENKERFMLLYSPEERYQLFCHHYPDLEQRITDSQIAAYLGITAISLSRIKARLAKDNK	not soluble
MQNELQTALFQAFDTLNLQRVKTFSVPPVTLCGPGSVSSCGQQAQTRGLKHLFVMADSFLHQAGMTAGLTRSLTVKGIAMTLWPCPVGEPCITDVCAAVAQLRESGCDGVIAFGGGSVLDAAKAVTLLVTNPDSTLAEMSETSVLQPRLPLIAIPTTAGTGSETTNVTVIIDAVSGRKQVLAHASLMPDVAILDAALTEGVPSHVTAMTGIDALTHAIEAYSALNATPFTDSLAIGAIAMIGKSLPKAVGYGHDLAARESMLLASCMAGMAFSSAGLGLCHAMAHQPGAALHIPHGLANAMLLPTVMEFNRMVCRERFSQIGRALRTKKSDDRDAINAVSELIAEVGIGKRLGDVGATSAHYGAWAQAALEDICLRSNPRTASLEQIVGLYAAAQ	soluble
MQNETINLKQHLAAIKEYWQPEIINRHGFQFHLVKLLGDYGWHTHGYSDKVLFAVEGDMAVDFADGGSMTIREGEMAVVPKSVSHRPRSENGCSLVLIELSDPSEAV	soluble
MQNLSSTQREILLALVDLYNRYKRMIKSKEVADVIGKDEGTVRNIILSLKVLGLIESKPGPNGGYVPTLKAYESIKNPIITPVFDQISLYKDGLETDIKISNIELLDITNPSGNKVLLRVNGDLRKLKVGDSIKIGPIPYTRLVIEGVVIHIDDTRKELIADVTRMISIPKVQIKSLISKKLVALKPDMTLKEASQIFYKEGIRGAPVLDNEGKTLGILTTADIIKAFFEGKYDAKVSEYMKSNVISIRDEDDILTAIKKMLIYNVGRLLVYNQDQKVIGIVTRTDILKTIAGLEELITP	soluble
MQNVLIVGVGFMGGSFAKSLRRSGFKGKIYGYDINPESISKAVDLGIIDEGTTSIAKVEDFSPDFVMLSSPVRTFREIAKKLSYILSEDATVTDQGSVKGKLVYDLENILGKRFVGGHPIAGTEKSGVEYSLDNLYEGKKVILTPTKKTDKKRLKLVKRVWEDVGGVVEYMSPELHDYVFGVVSHLPHAVAFALVDTLIHMSTPEVDLFKYPGGGFKDFTRIAKSDPIMWRDIFLENKENVMKAIEGFEKSLNHLKELIVREAEEELVEYLKEVKIKRMEI	soluble
MQPSHPSQPSHADRAAPTSALAPVVPPVLAEVVRSGFVEGRHRGSLVVLGADGAVELALGEVTAPVFPRSSNKPMQAAGVLRAGLDLAGERLALAAASHSGEPFHRDLVRKMLDEYGLDPALLQCPPDLPLDAEERETYLASGAEPDRVTMNCSGKHTAMLAVCAQQGWPLETYLDPEHPLQRVIHRVVEDAAGEPVAAVGTDGCGAPLMAISLVGLARAFRSFVAAEPGSAERRVADAMRAHPEYVAGSRRADTWLMREVPGSLSKMGAEAVQAVALPDGRALAFKIEDGATRALGPVLARALTLLGVDAPVVGRIGRAPLLGGGREVGEIRASFLEHHHHHH	not soluble
MQQTTQIQPSFTLKTREGGVASADERADEVVIGVGPAFDKHQHHTLIDMPHGAILKELIAGVEEEGLHARVVRILRTSDVSFMAWDAANLSGSGIGIGIQSKGTTVIHQRDLLPLSNLELFSQAPLLTLETYRQIGKNAARYARKESPSPVPVVNDQMVRPKFMAKAALFHIKETKHVVQDAEPVTLHIDLVRE	soluble
MQRKTFADAECPIARSLERVGEWWSILIMRDALQGLRRFDEFSRSLDIAPNMLTRRLNALVEAGLLERQPYSQRPLRYQYVPTAKGEDFRVVLMAFVAWGNRHYAEEGQSVQLVERTSGRPVRSFMAALADGRTVPLEQCTVQAGPAASEEMRQRLAAMPERSELPAR	not soluble
MQRNVMSEIVYGDKQLQILIAAEKLIAEQGFQGLSMHKVAKAANMATGTIYRYFRDKDHLLIEVRLHVSQKIAEAVQANLRDDMSLQERFRTMWLNIWTLAGSCRDIISNRVQYESLPTTTCCNVRELEQKMFAKVELLFDQGKQQGIFKPLDNHLLSALSFETTVTLARQYALGFYQLDDSTLDAMIQASWDAITQH	not soluble

From the DeepSol protein solubility set
